Each block holds one binder with its values, some of them ahead of it.
Experiments:
[1] = target: T1, C-terminal IBP4 fragment (amino acids 157-258) (human, UniProt P22692 157-258); assay: SPR (Biacore T100), mAb amine-coupled to C1 chip, CT-IBP4 injected, 1:1 fit, first surface assay 2
T1 construct: also called CT-IBP4; C-term IBP4
T1 sequence: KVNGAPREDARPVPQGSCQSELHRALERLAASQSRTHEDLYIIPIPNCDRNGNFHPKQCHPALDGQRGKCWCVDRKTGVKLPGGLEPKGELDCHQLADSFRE
Procedure: (§1) For this reason, anti-IBP4 antibodies were directly amine coupled using standard NHS/EDC coupling to a C1 sensor chip. Variant 5B3.G9 was coupled on two surfaces at 350 RU and the other at 150 RU. […] Antibodies were measured in a multi-cycle kinetic mode. Binding studies were performed in PBS buffer+0.05% P20+3 mM EDTA at 25 degrees C. CT-IBP4 was tested in a 3-fold concentration series up to 333 nM and injected at 100 uL/min for 3 minutes followed by a 10 minute dissociation phase. Surfaces were regenerated with 1/100 H3PO4 after each cycle. The antigen binding responses were processed by subtracting the signal from a reference surface with no antibody captured along with a buffer injection. The processed response data were globally fit to a simple 1:1 interaction using SCRUBBER (Biologic Software Pty Ltd). The antigen concentration series was tested three times over each surface, giving rise to the kinetic an affinity parameters summarized in the tables below.

[2] = target: T1, C-terminal IBP4 fragment (amino acids …); assay: SPR (Biacore T100), mAb amine-coupled to C1 chip, CT-IBP4 injected, average
Procedure: as §1

[3] = target: T1, C-terminal IBP4 fragment (amino acids …); assay: SPR (Biacore T100), mAb amine-coupled to C1 chip, CT-IBP4 injected, 1:1 fit, second surface assay 2
Procedure: as §1

[4] = target: T1, C-terminal IBP4 fragment (amino acids …); assay: SPR (Biacore T100), mAb amine-coupled to C1 chip, CT-IBP4 injected, 1:1 fit, first surface assay 1
Procedure: as §1

[5] = target: T1, C-terminal IBP4 fragment (amino acids …); assay: SPR (Biacore T100), mAb amine-coupled to C1 chip, CT-IBP4 injected, 1:1 fit, second surface assay 1
Procedure: as §1

[6] = target: T1, C-terminal IBP4 fragment (amino acids …); assay: SPR (Biacore T100), mAb amine-coupled to C1 chip, CT-IBP4 injected, 1:1 fit, first surface assay 3
Procedure: as §1

[7] = target: T1, C-terminal IBP4 fragment (amino acids …); assay: SPR (Biacore T100), mAb amine-coupled to C1 chip, CT-IBP4 injected, 1:1 fit, second surface assay 3
Procedure: as §1

[8] = target: T1, C-terminal IBP4 fragment (amino acids …); assay: SPR (Biacore T100), mAb amine-coupled to C1 chip, CT-IBP4 injected, 1:1 fit, assay 2
Procedure: as §1

[9] = target: T1, C-terminal IBP4 fragment (amino acids …); assay: SPR (Biacore T100), mAb amine-coupled to C1 chip, CT-IBP4 injected, 1:1 fit, assay 1
Procedure: as §1

[10] = target: T1, C-terminal IBP4 fragment (amino acids …); assay: SPR (Biacore T100), mAb amine-coupled to C1 chip, CT-IBP4 injected, 1:1 fit, assay 3
Procedure: as §1

[11] = target: T2, human sex hormone-binding globulin (SHBG) (human, UniProt P04278 30-402, O-linked glycan at T36 (native glycosylated form)); assay: Biacore, hybridoma supernatant
T2 construct: Purified human SHBG, the SHBG antigen of the SPR runs, or SHBG in human serum; also called SHBG protein
T2 sequence: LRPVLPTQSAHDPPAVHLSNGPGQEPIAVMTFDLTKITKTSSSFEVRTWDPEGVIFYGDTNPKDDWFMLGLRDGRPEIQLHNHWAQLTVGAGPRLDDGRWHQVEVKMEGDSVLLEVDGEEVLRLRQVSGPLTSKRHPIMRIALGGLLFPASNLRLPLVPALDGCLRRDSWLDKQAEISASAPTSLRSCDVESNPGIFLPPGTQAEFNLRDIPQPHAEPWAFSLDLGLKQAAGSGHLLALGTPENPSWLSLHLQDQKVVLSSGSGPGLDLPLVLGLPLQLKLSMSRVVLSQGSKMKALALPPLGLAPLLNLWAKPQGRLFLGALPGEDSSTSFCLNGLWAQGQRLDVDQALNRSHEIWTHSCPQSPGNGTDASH

[12] = target: T2, human sex hormone-binding globulin …; assay: SPR (Biacore T100), mAb captured on anti-mouse IgG, SHBG antigen injected, 1:1 fit, assay 3; assay 3
Procedure: (§2) Surface plasmon resonance experiments were performed on a BiacoreT100 to characterize the anti-SHBG and anti-IBP4 antibodies. Anti-mouse-IgG antibody was amine coupled to ˜500 RU on a C1 sensor chip using standard NHS/EDC activation. Test monoclonal antibodies were captured on the anti-mouse-IgG surfaces. The binding for the Sex Hormone Binding Globulin Antigen to anti-SHBG variant antibodies 4G10.F8 and 13C9.E5 were measured in a multi-cycle kinetic mode. Binding studies were performed in PBS buffer+0.05% P20+3 mM EDTA at 25 degrees C. SHBG was captured for 1 minute at 200 nM and regenerated with 1/100 H3PO4 after each cycle. SHBG was captured to similar densities on 2 different flow cells followed by an injection of the SHBG antigen in a 3-fold titration series up to 600 nM over the two surfaces. The responses were processed by subtracting the buffer injection to correct for drift. The data sets fit well to a simple 1:1 interaction model using SCRUBBER (Biologic Software Pty Ltd). The antigen concentration series was tested three times over each surface, giving rise to the kinetic an affinity parameters summarized below.

[13] = target: T2, human sex hormone-binding globulin …; assay: SPR (Biacore T100), mAb captured on anti-mouse IgG, SHBG antigen injected, 1:1 fit, assay 3
Procedure: as §2

[14] = target: T2, human sex hormone-binding globulin …; assay: SPR (Biacore T100), mAb captured on anti-mouse IgG, SHBG antigen injected, 1:1 fit, assay 2
Procedure: as §2

[15] = target: T2, human sex hormone-binding globulin …; assay: SPR (Biacore T100), mAb captured on anti-mouse IgG, SHBG antigen injected, 1:1 fit, assay 1
Procedure: as §2

[16] = target: T2, human sex hormone-binding globulin …; assay: SPR (Biacore T100), mAb captured on anti-mouse IgG, SHBG antigen injected, average of 3 assays
Procedure: as §2

Kd [1]: 37 nM | koff [1]: 0.00419 s⁻¹ | kon [1]: 113000 M⁻¹ s⁻¹ | Kd [2]: 31 nM | koff [2]: 0.0041 s⁻¹ | kon [2]: 150000 M⁻¹ s⁻¹ | Kd [3]: 17.1 nM | koff [3]: 0.0035 s⁻¹ | kon [3]: 204000 M⁻¹ s⁻¹ | Kd [4]: 38.2 nM | koff [4]: 0.00447 s⁻¹ | kon [4]: 117000 M⁻¹ s⁻¹ | Kd [5]: 25.8 nM | koff [5]: 0.00404 s⁻¹ | kon [5]: 157000 M⁻¹ s⁻¹ | Kd [6]: 43.1 nM | koff [6]: 0.00466 s⁻¹ | kon [6]: 108000 M⁻¹ s⁻¹ | Kd [7]: 22.3 nM | koff [7]: 0.00392 s⁻¹ | kon [7]: 176000 M⁻¹ s⁻¹
B1: anti-IBP4 antibody clone variant 5B3.G9 (antibody, mouse IgG1, kappa)
heavy: EVQLQQSGPELVKPGASAKISCKASGYTFTDYYMNWVKQSHGKSLEWIGDINPNNGGSAYNQKFKGKATLTVDKSSSTAYMELRSLTSEDSAVYYCARWDGGFDYWGQGTTLTVSSAKTTPPSVYPLAPGSAAQTNSMVTLGCLVKGYFPEPVTVTWNSGSLSSGVHTFPAVLQSDLYTLSSSVTVPSSTWPSQTVTCNVAHPASSTKVDKKIVPRDCGCKPCICTVPEVSSVFIFPPKPKDVLTITLTPKVTCVVVDISKDDPEVQFSWFVDDVEVHTAQTKPREEQINSTFRSVSELPIMHQDWLNGKEFKCRVNSAAFPAPIEKTISKTKGRPKAPQVYTIPPPKEQMAKDKVSLTCMITNFFPEDITVEWQWNGQPAENYKNTQPIMDTDGSYFVYSKLNVQKSNWEAGNTFTCSVLHEGLHNHHTEKSLSHSPG
light: DIVMTQSQKFMSTSVRDRVSVTCKASQNVGTNVAWYQQKPGQSPKALIYSASYRYSGVPDRFTGSGSGTAFTLTISNVQSEDLAEYFCQQYNIYPLTFGAGTKLELKRADAAPTVSIFPPSSEQLTSGGASVVCFLNNFYPKDINVKWKIDGSERQNGVLNSWTDQDSKDSTYSMSSTLTLTKDEYERHNSYTCEATHKTSTSPIVKSFNRNEC
notes: Mouse monoclonal; variant form expressed in CHO cells; also called IBP4 (5B3.G9) V1; IBP4-5B3.G9

Kd [8]: 56.1 nM | koff [8]: 0.0119 s⁻¹ | kon [8]: 211000 M⁻¹ s⁻¹ | Kd [2]: 76 nM | koff [2]: 0.013 s⁻¹ | kon [2]: 180000 M⁻¹ s⁻¹ | Kd [9]: 96.2 nM | koff [9]: 0.0146 s⁻¹ | kon [9]: 152000 M⁻¹ s⁻¹ | Kd [10]: 75.9 nM | koff [10]: 0.0128 s⁻¹ | kon [10]: 168000 M⁻¹ s⁻¹
B2: anti-IBP4 antibody clone variant 7D6.G4 (antibody, mouse IgG1, kappa, V domains shown)
VH: EVQLQQSGPELVKPGASVKISCKASGYTFTDYYMNWVKQSHGKSLEWIGDINPNNGGSAYNQKFKGKATLTVDKSSSTAYMELRSLTSEDSAVYYCARWDGGFDYWGQGTTLTVSS
VL: DIVMTQSQKFMSTSVRDRVSVTCKASQNVGTNVAWYQQKPGQSPKALIYSASYRYSGVPDRFTGSGSGTDFTLTISNVQSEDLAEYFCQQYNSYPLTFGAGTKLELKR
notes: Mouse monoclonal; variant form; also called IBP4 (7D6.G4) V2; IBP4-7D6.G4

Kd [11]: 0.95 nM | koff [11]: 6.2e-05 s⁻¹ | kon [11]: 65000 M⁻¹ s⁻¹ | koff [12]: 0.000145 s⁻¹ | Kd [13]: 3.66 nM | kon [13]: 39600 M⁻¹ s⁻¹ | Kd [14]: 1.91 nM | koff [14]: 8.37e-05 s⁻¹ | kon [14]: 43900 M⁻¹ s⁻¹ | Kd [15]: 1.05 nM | koff [15]: 4.57e-05 s⁻¹ | kon [15]: 43700 M⁻¹ s⁻¹ | Kd [16]: 2 nM | koff [16]: 9e-05 s⁻¹ | kon [16]: 42000 M⁻¹ s⁻¹
B3: anti-SHBG antibody clone variant 4G10.F8 (antibody, mouse IgG2a, kappa)
heavy: QVQLQQPGAELVKPGASVKMSCKASGYTFTGYWMHWVKQRPGQGLEWIGVIDPSTGYTTYNEKFKGKATLTVDTSSNTAYMQLSSLTSEDSAVYYCTREPLVTADFEYWGQGTTLTVSSAKTTAPSVYPLAPVCGDTTGSSVTLGCLVKGYFPEPVTLTWNSGSLSSGVHTFPAVLQSDLYTLSSSVTVTSSTWPSQSITCNVAHPASSTKVDKKIEPRGPTIKPCPPCKCPAPNLLGGPSVFIFPPKIKDVLMISLSPIVTCVVVDVSEDDPDVQISWFVNNVEVHTAQTQTHREDYNSTLRVVSALPIQHQDWMSGKEFKCKVNNKDLPAPIERTISKPKGSVRAPQVYVLPPPEEEMTKKQVTLTCMVTDFMPEDIYVEWTNNGKTELNYKNTEPVLDSDGSYFMYSKLRVEKKNWVERNSYSCSVVHEGLHNHHTTKSFSRTPG
light: DIVMTQSQKFMSTSVGDRISVTCKASQNVDTNVAWYRQKPGQSPKALIYSASYRFSGVPDRFTGSGSGTDFTLTISTFQSEDLAEYFCQQYDSYPYTFGGGTKLEIKRADAAPTVSIFPPSSEQLTSGGASVVCFLNNFYPKDINVKWKIDGSERQNGVLNSWTDQDSKDSTYSMSSTLTLTKDEYERHNSYTCEATHKTSTSPIVKSFNRNEC
notes: Mouse monoclonal; variant form expressed from a standard backbone in CHO cells; also called SHBG (4G10.F8) Anti SHBG v1; SHBG #6
